# Measured values published in paper PMC11407943, “Cdc14 phosphatases use an intramolecular pseudosubstrate motif to stimulate and regulate catalysis” (The Journal of Biological Chemistry, 2024).
# Starred links: 1 amine or outer side, 2 acyl side, 3 side chain; linkers in the order of their positions; H or OH if unused. Non-standard residues stand in square brackets, D forms with d. No end group written: not given here. pCF2‑Ser = (α,α-difluoromethylene)phosphonoserine, O=C([C@H](CC(F)(F)P(=O)(O)O)N[*:1])[*:2]
# T1: ScCdc14^1-449 (S. cerevisiae, UniProt Q00684 1-449)
# T1 construct: Expressed from pDEST17; also called Saccharomyces cerevisiae Cdc14 truncation that retains the SLiCE motif; source: E. coli, purified (HisTrap nickel sepharose)
# T1 sequence (looked up): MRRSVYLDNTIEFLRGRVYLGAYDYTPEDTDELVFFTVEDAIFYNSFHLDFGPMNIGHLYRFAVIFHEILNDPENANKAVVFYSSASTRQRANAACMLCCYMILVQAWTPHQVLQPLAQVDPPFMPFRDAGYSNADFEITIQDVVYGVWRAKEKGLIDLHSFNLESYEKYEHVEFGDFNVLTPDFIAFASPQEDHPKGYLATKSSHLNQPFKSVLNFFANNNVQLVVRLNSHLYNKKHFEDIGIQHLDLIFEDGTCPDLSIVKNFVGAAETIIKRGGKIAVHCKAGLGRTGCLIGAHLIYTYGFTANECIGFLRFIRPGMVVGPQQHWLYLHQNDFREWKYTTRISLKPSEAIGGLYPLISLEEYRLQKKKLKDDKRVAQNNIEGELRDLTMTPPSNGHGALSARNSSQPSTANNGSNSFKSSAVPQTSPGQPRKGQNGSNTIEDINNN
# T2: ScCdc14^P433A/K435A (S. cerevisiae, UniProt Q00684 1-449, P433A | K435A)
# T2 construct: source: E. coli, purified (HisTrap nickel sepharose)
# T2 sequence (looked up): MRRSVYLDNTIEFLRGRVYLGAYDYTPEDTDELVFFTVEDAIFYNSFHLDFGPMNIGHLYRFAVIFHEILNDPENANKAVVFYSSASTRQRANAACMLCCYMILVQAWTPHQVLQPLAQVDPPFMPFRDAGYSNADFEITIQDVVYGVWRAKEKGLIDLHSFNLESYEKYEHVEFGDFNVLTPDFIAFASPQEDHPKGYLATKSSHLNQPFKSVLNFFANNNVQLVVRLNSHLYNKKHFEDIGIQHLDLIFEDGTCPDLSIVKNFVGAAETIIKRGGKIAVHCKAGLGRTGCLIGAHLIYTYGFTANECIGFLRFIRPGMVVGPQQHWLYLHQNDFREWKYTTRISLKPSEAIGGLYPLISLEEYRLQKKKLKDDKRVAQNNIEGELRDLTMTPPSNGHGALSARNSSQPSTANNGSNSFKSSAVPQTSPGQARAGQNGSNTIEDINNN
# What was measured:
# ScCdc14^1-449 = target: T1, ScCdc14^1-449; details: both partners purified
# ScCdc14^P433A/K435A = target: T2, ScCdc14^P433A/K435A; details: both partners purified
binder,measurement,setting,value
EV[pCF2‑Ser]PTKR [EV(pCF2-Ser)PTKR],Kd,ScCdc14^1-449,6 ± 2 µM
same,Kd,ScCdc14^P433A/K435A,13 ± 4 µM
